According to patent publication US7276481B2, “Method and composition for treatment of skeletal dysplasias” (ProChon Biotech Ltd., priority 2001, dated 2007):
Like-named read-outs stand apart in the source and are kept apart here.

Molecular target: T1, natriuretic peptide receptor on C3H10T1/2 cells (Mus musculus, UniProt Q6VVW5)
T1 construct: endogenous in cells; host or cells: C3H10T1/2 cells
T1 sequence (Q6VVW5 23-1047 limits assumed): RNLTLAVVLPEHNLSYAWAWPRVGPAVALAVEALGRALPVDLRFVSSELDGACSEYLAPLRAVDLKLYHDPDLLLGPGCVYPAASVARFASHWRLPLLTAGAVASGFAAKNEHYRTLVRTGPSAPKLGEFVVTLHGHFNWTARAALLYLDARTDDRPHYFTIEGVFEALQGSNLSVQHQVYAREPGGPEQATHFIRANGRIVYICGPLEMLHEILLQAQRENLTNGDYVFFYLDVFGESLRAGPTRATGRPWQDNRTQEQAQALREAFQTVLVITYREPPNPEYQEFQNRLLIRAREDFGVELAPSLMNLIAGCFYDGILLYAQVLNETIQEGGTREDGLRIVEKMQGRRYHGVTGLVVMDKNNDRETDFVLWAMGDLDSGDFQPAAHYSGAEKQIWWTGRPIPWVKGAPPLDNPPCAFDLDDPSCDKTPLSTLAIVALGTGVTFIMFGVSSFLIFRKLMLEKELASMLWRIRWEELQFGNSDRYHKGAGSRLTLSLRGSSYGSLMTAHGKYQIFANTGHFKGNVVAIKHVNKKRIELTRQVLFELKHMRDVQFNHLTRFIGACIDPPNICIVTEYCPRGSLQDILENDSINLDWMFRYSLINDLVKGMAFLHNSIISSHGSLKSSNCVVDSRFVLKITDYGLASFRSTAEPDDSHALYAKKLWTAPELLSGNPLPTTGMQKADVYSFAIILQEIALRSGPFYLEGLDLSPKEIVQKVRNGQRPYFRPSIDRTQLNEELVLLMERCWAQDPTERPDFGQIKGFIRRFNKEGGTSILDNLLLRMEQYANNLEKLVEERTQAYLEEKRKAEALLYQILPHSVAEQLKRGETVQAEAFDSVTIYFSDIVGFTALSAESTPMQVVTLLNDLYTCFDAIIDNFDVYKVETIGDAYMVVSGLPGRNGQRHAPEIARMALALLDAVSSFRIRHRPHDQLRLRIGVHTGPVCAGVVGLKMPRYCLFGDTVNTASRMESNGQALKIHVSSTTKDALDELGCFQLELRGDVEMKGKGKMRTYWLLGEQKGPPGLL
Test: Biotrak enzyme immunoassay of cGMP elicited on C3H10T1/2 cells
Format: cell-based
Procedure: All peptide variants were analyzed for activity using the Biotrak enzyme immunoassay (EIA, Amersham) that measures the amount of secondary messenger, cyclic GMP (cGMP), elicited after activation of the natriuretic peptide receptor by the peptide on C3H10T1/2 cells. Amino acid substitutions are marked in bold and underlined. The assay was performed for CNP and variants at a concentration of 10^−6 M. The values are given as the percent of relative binding compared to CNP, where CNP 1-22 and CNP 5-22 yield 100% binding.

[1] = Table 3, cGMP values at 10^-6 M, compared to CNP (CNP 1-22 and CNP 5-22 = 100%)
[2] = Table 2, cGMP assay, compared to CNP

| Sequence | cGMP response as percent of CNP [1] [%] | cGMP response as percent of CNP [2] [%] | further results |
| --- | --- | --- | --- |
| C A G L K L A R I G S A S G L G C (CAGLKLARIGSASGLGC; peptide variant) [SEQ ID NO:27] | −10.355 | – | – |
| C A G L K L A R I G S M S G L G C (CAGLKLARIGSMSGLGC; peptide variant) [SEQ ID NO:24] | −5.848 | – | – |
| C A G L K L D R I G S A S G L G C (CAGLKLDRIGSASGLGC; peptide variant) [SEQ ID NO:25] | 3.933 | – | – |
| C A G L K L D R I G S M S G L G C (CAGLKLDRIGSMSGLGC; peptide variant) [SEQ ID NO:6] | – | 43.8 | – |
| C F G A K L D R I G S M S G L G C (CFGAKLDRIGSMSGLGC; peptide variant) [SEQ ID NO:40] | 20.154 | – | – |
| C F G I K L D R I G S M S G L G C (CFGIKLDRIGSMSGLGC; peptide variant) [SEQ ID NO:41] | 47.395 | – | – |
| C F G L K A D R I G S M S G L G C (CFGLKADRIGSMSGLGC; peptide variant) [SEQ ID NO:45] | 11.259 | – | – |
| C F G L K I D R I G S M S G L G C (CFGLKIDRIGSMSGLGC; peptide variant) [SEQ ID NO:46] | 88.117 | – | – |
| C F G L K L A R I G S A S G L G C (CFGLKLARIGSASGLGC; peptide variant) [SEQ ID NO:26] | 5.755 | – | – |
| C F G L K L A R I G S M S G L G C (CFGLKLARIGSMSGLGC; peptide variant) [SEQ ID NO:7] | – | 49.1 | – |
| C F G L K L D A I G S M S G L G C (CFGLKLDAIGSMSGLGC; peptide variant) [SEQ ID NO:8] | – | 18.4 | – |
| C F G L K L D H I G S M S G L G C (CFGLKLDHIGSMSGLGC; peptide variant) [SEQ ID NO:48] | 13.482 | – | – |
| C F G L K L D K I G S M S G L G C (CFGLKLDKIGSMSGLGC; peptide variant) [SEQ ID NO:49] | 21.543 | – | – |
| C F G L K L D Q I G S M S G L G C (CFGLKLDQIGSMSGLGC; peptide variant) [SEQ ID NO:50] | 11.953 | – | – |
| C F G L K L D R A G S M S G L G C (CFGLKLDRAGSMSGLGC; peptide variant) [SEQ ID NO:9] | – | 11.5 | – |
| C F G L K L D R I G - - - - - - C (CFGLKLDRIGC; peptide variant) [SEQ ID NO:22] | – | 4.2 | – |
| C F G L K L D R I G A M - - - - C (CFGLKLDRIGAMC) [SEQ ID NO:17] | – | 3.4 | – |
| C F G L K L D R I G A M S G L G C (CFGLKLDRIGAMSGLGC; peptide variant) [SEQ ID NO:54] | 54.469 | – | – |
| C F G L K L D R I G A Q - - - - C (CFGLKLDRIGAQC; peptide variant) [SEQ ID NO:19] | – | 3.8 | – |
| C F G L K L D R I G A Q S - - - C (CFGLKLDRIGAQSC; peptide variant) [SEQ ID NO:15] | – | 20.6 | – |

| Sequence | cGMP response as percent of CNP [1] [%] | cGMP response as percent of CNP [2] [%] | further results |
| --- | --- | --- | --- |
| C F G L K L D R I G G M S G L G C (CFGLKLDRIGGMSGLGC; peptide variant) [SEQ ID NO:55] | 27.811 | – | – |
| C F G L K L D R I G N M S G L G C (CFGLKLDRIGNMSGLGC; peptide variant) [SEQ ID NO:57] | 27.430 | – | – |
| C F G L K L D R I G S - - - - - C (CFGLKLDRIGSC; peptide variant) [SEQ ID NO:21] | – | 22.7 | – |
| C F G L K L D R I G S G S G L G C (CFGLKLDRIGSGSGLGC; peptide variant) [SEQ ID NO:69] | 62.117 | – | – |
| C F G L K L D R I G S H S G L G C (CFGLKLDRIGSHSGLGC; peptide variant) [SEQ ID NO:66] | 66.222 | – | – |
| C F G L K L D R I G S K S G L G C (CFGLKLDRIGSKSGLGC; peptide variant) [SEQ ID NO:67] | 66.910 | – | – |
| C F G L K L D R I G S M - - - - C (CFGLKLDRIGSMC; peptide variant) [SEQ ID NO:16] | – | 17.3 | – |
| C F G L K L D R I G S M S - - - C (CFGLKLDRIGSMSC; peptide variant) [SEQ ID NO:14] | – | 29.9 | – |
| C F G L K L D R I G S M S A L G C (CFGLKLDRIGSMSALGC; peptide variant) [SEQ ID NO:58] | 53.649 | – | – |
| C F G L K L D R I G S M S G A G C (CFGLKLDRIGSMSGAGC; peptide variant) [SEQ ID NO:63] | −1.111 | – | – |
| C F G L K L D R I G S M S G G G C (CFGLKLDRIGSMSGGGC; peptide variant) [SEQ ID NO:64] | −10.145 | – | – |
| C F G L K L D R I G S M S G L G C (CFGLKLDRIGSMSGLGC) [SEQ ID NO:2] | 100.000 | 127.4 | activity in cGMP assay (in words): active; cGMP response as percent of CNP (Table 3, cGMP values at 10^-6 M, compared to CNP (CNP 1-22 and CNP 5-22 = 100%), listed as CNP 5-22): 100%; activity in cGMP assay (in words) (listed as SEQ ID NO: 2): as active as the native CNP1-22 |
| C F G L K L D R I G S M S G M G C (CFGLKLDRIGSMSGMGC; peptide variant) [SEQ ID NO:62] | 51.286 | – | – |
| C F G L K L D R I G S M S G Q G C (CFGLKLDRIGSMSGQGC; peptide variant) [SEQ ID NO:61] | −3.474 | – | – |
| C F G L K L D R I G S M S K L G C (CFGLKLDRIGSMSKLGC; peptide variant) [SEQ ID NO:60] | 49.202 | – | – |
| C F G L K L D R I G S M S L L G C (CFGLKLDRIGSMSLLGC; peptide variant) [SEQ ID NO:59] | 15.289 | – | – |
| C F G L K L D R I G S Q - - - - C (CFGLKLDRIGSQC; peptide variant) [SEQ ID NO:18] | – | 11.8 | – |
| C F G L K L D R I G S S S G L G C (CFGLKLDRIGSSSGLGC; peptide variant) [SEQ ID NO:68] | 62.531 | – | – |
| C F G L K L D R I G S W S G L G C (CFGLKLDRIGSWSGLGC; peptide variant) [SEQ ID NO:65] | 66.450 | – | – |
| C F G L K L D R I G T M S G L G C (CFGLKLDRIGTMSGLGC; peptide variant) [SEQ ID NO:56] | 74.080 | – | – |
